From the DeepSol protein solubility set

Test: soluble on expression in E. coli; label from the status in PepcDB or PDB records

| Sequence | soluble on expression in E. coli |
| --- | --- |
| MDFNLNDEQELFVAGIRELMASENWEAYFAECDRDSVYPERFVKALADMGIDSLLIPEEHGGLEAGFVTVAAVWMELGRLGAPTYVLYQLPGGFNTFLREGTQEQIDKIMAFRGTGKQMWNSAITEPGAGSDVGSLKTTYTRKNGKVYLNGSKCFITSSAYTPYIVVMARDGASPDKPVYTEWFVDMSKAGIKVNKLEKLGLRMDSCCEITFDDVELDEKDMFGREGNGFNRVKEEFDHERFLVALTNYGTAMCAFEDAARYANQRVQFGEAIGRFQLIQEKFAHMAIKLNSMKNMLLEAAWKADNGTITSGDAAMCKYFCANAAFEVVDTAMQVLGGVGIAGNHRITRFWRDLRVDRVSGGSDEMQILTLGRAVLKQYR | not soluble |
| MDGDIIDQYRFPSPHPGIDVFFVTYMSQGLKVKGFLAAPKRKGVYDGFLYLRGGIKNVGQVRVPRLVQFASQGFVVFAPLYRGNGGGEGNEDFAGDDRYDALAGFHLLRRHPLVHPGRVHMFGFSRGGAMALHAAVMAEGVCSVAVWGGVADLELTYWERPDLRRMMKRVIGGTPNKCPERYRHRTPLYHLERLKAPVLIIHGGRDENVSIEHAWRLERRLKQLGKPVTAWYFPEFTHYFPPQANRETVQRLTEWMKQQPTM | not soluble |
| MDGMGTLTRYLEEAMARARYELIADEEPYYGEIPDLPGVWATGKSLKECEANLQAALEDWLLFLLSRGETPPPLGEVRIELPHGEAA | soluble |
| MDHRAQAREVFVRAQLEAVQKAITKNEVPLKPKHARTIIVGTHKEKSSGIFWHTVGRIQLEKHPVLTWKFCHLVHKLLRDGHRKVPEETYRYVNRFTQLSQFWKHLNTSGYGPCIESYCKLLHDRVTFHNKYPVVPGKLDLNDSQLKTLEGDLDNMFEMTIDMLDQMDALLVLQDRVYEMMNSLRWNSLIPQGQCMLSPLIIAILDTSKFYDYLVKMIFKLHSQVPPDALEGHRSRFRTIFERTKKFYEESSNLQYFKYLVSIPTLPSHAPNFLQQSDLESYRTPHAYLHSEGSEDGTSLNGHDGELLNLAEAEPQQASPSSQPDPREEQIVMLSRAVEDEKFAKERLIQEARSRIEQYENRLLQMQGEFDHAKREADENREEAQRLKNELALRDASRTQTDDARVKEAELKATAAEERFNKMKGVYEKFRSEHVLALTKLGDIQKQLEASEKSKFDKDEEITALNRKVEEAQREAGRALTKAEGDAGAVDEMRTQLVKADIEVEELKRTIDHLRESHANQLVQSSAEETNKIRLAELEVAKESGVGITQMFDHCEDALQNATSITYPPHLAQSAMNNLVNILSNERLDEPLATKDNVFAGHLLSTTLSAAASAAYTASIESYEGVNDQCKKVLAAAKVAFSDDSALSRADKMKLLRQDIQTLNSLMISLPLQTDIDKDVVGNELEQEMRRMDDAIRRAVQEIEAIQRRARESSDGIRLEVNESILANCQALMSVIMQLVIASRELQTEIVAAGKAGGSPAEFYKRNHQWTEGLLSAAKAVGVAARVLVESADGVVTGKGKFEHLIVAAQEIAASTAQLFVSSRVKADKDSSKLDALSVAAKAVNQNTAQVVAAVKNGQTTLNDEGSLDFSYLSLHAAKKEEMESQVKMLELEQSLNQERAKLAALRKQHYHMAQLVANKEGEEAQE | not soluble |
| MDICSRNKKLTIRRPAILVALALLLCSCKSTPPESMVTPPAGSKPPATTQQSSQPMRGIWLATVSRLDWPPVSSVNISNPTSRARVQQQAMIDKLDHLQRLGINTVFFQVKPDGTALWPSKILPWSDLMTGKIGENPGYDPLQFMLDEAHKRGMKVHAWFNPYRVSVNTKPGTIRELNSTLSQQPASVYVQHRDWIRTSGDRFVLDPGIPEVQDWITSIVAEVVSRYPVDGVQFDDYFYTESPGSRLNDNETYRKYGGAFASKADWRRNNTQQLIAKVSHTIKSIKPGVEFGVSPAGVWRNRSHDPLGSDTRGAAAYDESYADTRRWVEQGLLDYIAPQIYWPFSRSAARYDVLAKWWADVVKPTRTRLYIGIAFYKVGEPSKIEPDWMINGGVPELKKQLDLNDAVPEISGTILFREDYLNKPQTQQAVSYLQSRWGS | soluble |
| MDIPQDSYDLVVVGGGTSGVFAAISAARRGLRVALVEASGMLGGTLTQVTLGGICGAWTGTAHTQVVHGLFDEFVHAMRKAQACDGLYSYGHVTALPYEPVKVRYLLDQLLPPNVTTFFHSRLFAVDMEGERIARVHLAGVEGPFSLAARAYVDATGNASLAGLCATPLRRGENGTVQAASSMFRVIGADVDPRVRDVRTEIRLAIEKHNASGQAEAFKRSAVAVYVHPDQRLLHFNATRVYFESTADDALAAALDMSRVETEARKEAFRLVELLKREVDGFANIEIVDLGSSVGVRDSRNIVNDHPLTEAMVRDGDKPANSVAYSAWPIEFHGSNTQTHWEPLEGDRYYGIPYESCLPQGIQNALVIGRAISSTPLAQASCRVTAPCIQMGESAGIAAHELVASSSRTAFSELASMKFILEHHHHHH | not soluble |
| MDITEKLRLITRNAEEVVTEEELRQLIETKEKPRAYVGYEPSGEIHLGHMMTVQKLMDLQEAGFEIIVLLADIHAYLNEKGTFEEIAEVADYNKKVFIALGLDESRAKFVLGSEYQLSRDYVLDVLKMARITTLNRARRSMDEVSRRKEDPMVSQMIYPLMQALDIAHLGVDLAVGGIDQRKIHMLARENLPRLGYSSPVCLHTPILVGLDGQKMSSSKGNYISVRDPPEEVERKIRKAYCPAGVVEENPILDIAKYHILPRFGKIVVERDAKFGGDVEYASFEELAEDFKSGQLHPLDLKIAVAKYLNMLLEDARKRLGVSV | soluble |
| MDIWVNLLSDRLESPNFEFITDFIGGKCVVQKDYLEDEKSQSSSGWLLHVYFRPEEFLDRPFVADIIFRCGTRRREVFSVLLKNDCFFAHMRVKEKTGRLIIAARIRKMLCELDLSKPSGSRQFVVQNFENQLKDGRIFYVNLAKLGQIGGDLFKKWQTVENVQQLSLANETMENRMIEVLMEATAKYDDIVVIRHSFHRLIQLAQTYRMHKLMRVIEENLSETKLMNWDEKILLALQYRMSQLYVQVQRKYLLTPWNILCRIQRLYLSNYAAKSGNASNPYDMIHKNLMQMVMMSDENICIG | not soluble |
| MDKDCEMKRTTLDSPLGKLELSGCEQGLHEIKLLGKGTSAADAVEVPAPAAVLGGPEPLMQCTAWLNAYFHQPEAIEEFPVPALHHPVFQQESFTRQVLWKLLKVVKFGEVISYQQLAALAGNPKAARAVGGAMRGNPVPILIPCHRVVCSSGAVGNYSGGLAVKEWLLAHEGHRLGKPGLGGSSGLAGAWLKGAGATSGSPPAGRN | soluble |
| MDKIVIKGGNKLTGEVKVEGAKNAVLPILTASLLASDKPSKLVNVPALSDVETINNVLTTLNADVTYKKDENAVVVDATKTLNEEAPYEYVSKMRASILVMGPLLARLGHAIVALPGGCAIGSRPIEQHIKGFEALGAEIHLENGNIYANAKDGLKGTSIHLDFPSVGATQNIIMAASLAKGKTLIENAAKEPEIVDLANYINEMGGRITGAGTDTITINGVESLHGVEHAIIPDRIEAGTLLIAGAITRGDIFVRGAIKEHMASLVYKLEEMGVELDYQEDGIRVRAEGELQPVDIKTLPHPGFPTDMQSQMMALLLTANGHKVVTETVFENRFMHVAEFKRMNANINVEGRSAKLEGKSQLQGAQVKATDLRAAAALILAGLVADGKTSVTELTHLDRGYVDLHGKLKQLGADIERIND | not soluble |
| MDKLGENLNKALNKLKAAAFVDKKLIKEVIKDIQRALIQADVNVKLVLKMSKEIERRALEEKTPKGLSKKEHIIKIVYEELVKLLGEEAKKLELNPKKQNVILLVGIQGSGKTTTAAKLARYIQKRGLKPALIAADTYRPAAYEQLKQLAEKIHVPIYGDETRTKSPVDIVKEGMEKFKKADVLIIDTAGRHKEEKGLLEEMKQIKEITNPDEIILVIDGTIGQQAGIQAKAFKEAVGEIGSIIVTKLDGSAKGGGALSAVAETKAPIKFIGIGEGIDDLEPFDPKKFISRLLGMGDLESLLEKAEDMVDEKTEESIDAIMRGKFTLNELMTQLEAIENMGSMKKILSMIPGFGGAMPKELSHLTEAKIKKYKVIISSMTKEERENPKIIKASRIRRIARGSGTTENDVREVLRYYETTKNAIDKLHHHHHH | soluble |
| MDLALFDLDETLISDDSTGLWIRWLVNEGLAPFELSEQEQTLMTQYYQGQLSMAGYMAATLSPLVGKHTAEVAGWVEHFIAHDILPRIYPQALEKLAWHRDRGDYIVIISASGEHLVTPIAKHFAADTALSIGVTVENDRYTGQTYGTLTYQKGKVDRLNQWLSASPQLNFKRSYGYSDSINDQPLLEYVDHAAVINPGAELIDLAVLHQWDIHHW | not soluble |
